This is an account of results in article PMC2952653 (Journal of molecular biology, 2010).

Data set [1] concerns the target MEF2A (2-95), MADS-box/MEF2 domain (Homo sapiens, UniProt Q02078 2-95). The experiment in a line: X-ray crystallography.
Data set [2] concerns the molecule itself. The experiment in a line: multiangle light scattering.

B1: MEF2 site 14mer (crystal) (dsDNA)
DNA 1: AACTATTTATAAGA
DNA 2: TTCTTATAAATAGT
Consider B1, for which, in data set [1], the binding result was “binds”.

B2: MADS-box/MEF2 domain of human MEF2A (residues 2-95) (domain or fragment, UniProt Q02078 2-95, looked up)
chain: GRKKIQITRIMDERNRQVTFTKRKFGLMKKAYELSVLCDCEIALIIFNSSNKLFQYASTDMDKVLLKYTEYNEPHESRTNSDIVEALNKKEHRG
What is called stoichiometry N is the number of molecules, sites or subunits per partner or assembly. With B2, the “stoichiometry N” value in data set [2] stood at 2.
